# Reference: US20250186597A1, “TARGETED IMMUNE ACTIVATION WITH IL-18 IMMUNOCYTOKINES” (BRIGHT PEAK THERAPEUTICS AG, priority 2023, published 2025)
# Tests used:
# [1] = target: T1, human Fc gamma receptors IIb (FcγRIIb/CD32b) (Homo sapiens, UniProt P31994); experiment: Human FcγR binding ELISA, FcγRIIb/CD32b (Example 8); conditions: ELISA binding affinity
# T1 construct: purchased R&D systems AVI1875-050
# T1 sequence (P31994 43-310): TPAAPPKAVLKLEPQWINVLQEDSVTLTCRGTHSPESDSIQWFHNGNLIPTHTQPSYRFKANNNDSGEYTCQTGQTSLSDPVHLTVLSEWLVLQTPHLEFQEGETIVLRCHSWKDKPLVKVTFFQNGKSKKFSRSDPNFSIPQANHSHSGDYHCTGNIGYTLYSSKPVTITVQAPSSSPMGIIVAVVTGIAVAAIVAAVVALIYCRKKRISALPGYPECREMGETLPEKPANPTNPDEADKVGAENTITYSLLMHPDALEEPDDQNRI
# Procedure: (§1) The interaction of the unmodified and of conjugated antibodies with human Fc gamma receptors I (FcγRI/CD64), with human Fc gamma receptors IIa (FcγRIIa/CD32a), with inhibitory human Fc gamma receptors IIb (FcγRIIb/CD32b), and with human Fc gamma receptors III FcγRIIIa/CD16 were measured by ELISA.
# (§2) Briefly, Corning high-binding half-area plates (Fisher Scientific, Reinach, Switzerland) were coated overnight at 4° C. with 25 μl of unmodified and of conjugated anti-PD1 antibodies at 2.5 μg/ml in PBS. […] Plates surfaces were blocked with 25 μl of PBS-0.02% Tween20-1% BSA at 37° C. during 1 h. […] Twenty-five microliters of a 1/500 HRP-anti-His antibody in PBS—0.02% Tween20—0.1% BSA (R&D systems, anti-HIS—HRP Ab, #MAB050H) were added to each well and plates were incubated at Room Temperature during 1 h. […] ELISA signal was then measured at 450 nm on an EnSpire plate reader from Perkin Elmer (Schwerzenbach, Switzerland).
# [2] = target: T2, human Fc gamma receptors I (FcγRI/CD64) (Homo sapiens, UniProt P12314); experiment: Human FcγR binding ELISA, FcγRI/CD64 (Example 8); conditions: ELISA binding affinity
# T2 construct: purchased R&D systems 1257-FC-050
# T2 sequence (P12314 16-374): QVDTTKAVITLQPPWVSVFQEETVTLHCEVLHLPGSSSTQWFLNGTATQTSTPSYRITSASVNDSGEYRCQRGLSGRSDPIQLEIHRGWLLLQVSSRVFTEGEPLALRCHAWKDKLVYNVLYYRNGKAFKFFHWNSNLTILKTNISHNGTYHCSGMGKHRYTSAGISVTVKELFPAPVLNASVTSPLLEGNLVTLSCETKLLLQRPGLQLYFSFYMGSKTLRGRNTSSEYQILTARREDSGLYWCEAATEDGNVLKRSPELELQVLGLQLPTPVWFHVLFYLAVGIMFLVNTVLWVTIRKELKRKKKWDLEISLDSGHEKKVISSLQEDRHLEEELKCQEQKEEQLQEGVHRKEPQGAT
# Procedure: as §1, §2
# human PD-L1/B7-H1 = target: T3, human PD-L1/B7-H1 (Homo sapiens, UniProt Q9NZQ7); experiment: PD-L1 binding ELISA assay (Example 5); conditions: biotinylated human PD-L1
# T3 construct: purchased ACROBiosystems PD1-H82E5-25UG
# T3 sequence (Q9NZQ7 19-290): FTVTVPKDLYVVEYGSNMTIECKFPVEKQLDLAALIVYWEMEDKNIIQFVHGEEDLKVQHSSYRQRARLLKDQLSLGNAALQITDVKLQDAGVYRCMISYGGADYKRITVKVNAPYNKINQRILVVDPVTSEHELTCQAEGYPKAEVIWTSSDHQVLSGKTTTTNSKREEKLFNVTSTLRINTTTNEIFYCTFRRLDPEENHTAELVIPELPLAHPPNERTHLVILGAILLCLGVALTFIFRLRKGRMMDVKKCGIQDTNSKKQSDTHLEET
# Procedure: The interaction of the unmodified antibodies and corresponding IL-18 immunocytokines with relevant immune cell associated antigen are measured by ELISA assay. For these studies, Corning high-binding half-area plates (Fisher Scientific, Reinach, Switzerland) are coated overnight at 4° C. with 25 μl of unmodified antibodies corresponding IL-18 immunocytokines at […] in PBS. […] Plate surfaces are blocked with 25 μl of PBS-0.02% Tween20-1% BSA at 37° C. during 1 h. […] ELISA signal is then measured at 450 nm on an ENSPIRE® plate reader from Perkin Elmer (Schwerzenbach, Switzerland).
# [3] = target: T4, human neonatal Fc receptor (FcRn) (Homo sapiens, UniProt P55899); experiment: Human FcRn binding AlphaLISA at pH 6 (Example 9)
# T4 construct: purchased Perkin Elmer AL3095C
# T4 sequence (P55899 24-297 limits assumed): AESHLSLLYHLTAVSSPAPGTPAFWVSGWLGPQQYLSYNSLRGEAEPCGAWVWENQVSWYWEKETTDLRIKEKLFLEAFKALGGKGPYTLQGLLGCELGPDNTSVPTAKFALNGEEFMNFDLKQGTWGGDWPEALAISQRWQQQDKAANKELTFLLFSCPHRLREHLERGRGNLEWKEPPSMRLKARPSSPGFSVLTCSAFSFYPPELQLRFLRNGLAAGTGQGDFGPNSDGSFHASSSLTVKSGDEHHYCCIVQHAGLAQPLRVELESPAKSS
# T4 sequence (P61769 21-119 partner): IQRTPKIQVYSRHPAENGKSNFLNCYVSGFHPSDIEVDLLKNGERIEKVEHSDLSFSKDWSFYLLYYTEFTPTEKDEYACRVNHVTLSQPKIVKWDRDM
# Procedure: The interaction of the unmodified and of conjugated anti-PD1 antibodies with the human neonatal Fc receptor (FcRn) at pH 6 was measured using the AlphaLISA® Human FcRn Binding Kit (AL3095C) from Perkin Elmer (Schwerzenbach, Switzerland). […] When reference IgG binds to FcRn, donor and acceptor beads come into proximity enabling the transfer of singlet oxygen that trigger a cascade of energy transfer reactions in the acceptor beads, resulting in a sharp peak of light emission at 615 nm. Addition of a free IgG antibodies into the AlphaLISA® mixture creates a competition for the binding of FcRn to the reference antibody resulting in a loss of signal.
# After 90 min at 23° C. in the dark, AlphaLISA® signal was measured on an EnSpire plate reader (Excitation at 680 nm, Emission at 615 nm) from Perkin Elmer (Schwerzenbach, Switzerland).
# [4] = target: T5, human Fc gamma receptors IIa (FcγRIIa/CD32a) (Homo sapiens, UniProt P12318); experiment: Human FcγR binding ELISA, FcγRIIa/CD32a (Example 8); conditions: ELISA binding affinity
# T5 construct: purchased R&D systems 9595-CD-050
# T5 sequence (P12318 34-317): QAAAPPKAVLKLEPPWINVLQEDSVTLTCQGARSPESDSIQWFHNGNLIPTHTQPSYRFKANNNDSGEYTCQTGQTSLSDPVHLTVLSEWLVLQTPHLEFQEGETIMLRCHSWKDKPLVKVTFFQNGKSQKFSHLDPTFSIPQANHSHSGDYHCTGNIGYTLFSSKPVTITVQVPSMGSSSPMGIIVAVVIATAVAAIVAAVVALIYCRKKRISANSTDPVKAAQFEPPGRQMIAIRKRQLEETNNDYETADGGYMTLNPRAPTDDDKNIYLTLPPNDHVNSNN
# Procedure: as §1, §2
# human PD1 = target: T6, human PD1 (Homo sapiens, UniProt Q15116); experiment: Binding kinetics to PD-1 by Bio-Layer Interferometry (Example 6); conditions: BLI, His-tagged human PD1
# T6 construct: purchased R&D #8986-PD
# T6 sequence (Q15116 25-288): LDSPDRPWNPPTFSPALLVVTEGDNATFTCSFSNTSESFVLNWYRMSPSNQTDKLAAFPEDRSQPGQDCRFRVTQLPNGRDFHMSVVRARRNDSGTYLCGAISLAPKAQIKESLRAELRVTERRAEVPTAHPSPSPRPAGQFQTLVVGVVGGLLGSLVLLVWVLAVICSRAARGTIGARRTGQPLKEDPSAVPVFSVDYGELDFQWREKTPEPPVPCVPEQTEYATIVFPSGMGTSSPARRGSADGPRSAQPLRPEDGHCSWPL
# Source text: Based on Bio-Layer Interferometry (BLI), Octet® BLI systems enable real-time, label-free analysis for the determination of kinetics and affinity of a ligands to its receptor. Here anti-human IgG FC Capture (AHC) sensors are loaded with the test items (ICs). Sensors are first dipped into a kinetic buffer for baseline measurement, then into an analyte solution, here human PD1, to allow association and again into a buffer solution where the analyte is allowed to come off the ligand (dissociation). Several concentrations of analyte are run in parallel and enable the calculation of affinity parameters: Ka, Kd, KD.
# Typically, first, the sensors are regenerated by 3 cycles of dipping into 10 mM glycine solution at pH=2 for 20 seconds, followed by 20 second kinetics buffer and a final 60 seconds in kinetics buffer to establish the initial signal (baseline). Second, the loading column will contain the ligand, here the unmodified PD-1 antibodies and of IL-18 polypeptide conjugated PD-1 antibody, at a fixed concentration determined in the loading scout experiment (20 ug/mL). Then another wash/baseline step allows non immobilized proteins to be washed away. […] After acquisition, the data is analyzed with Data Analysis Studio software (Sartorius). […] Group fitting is then applied to the data series and kinetics parameters are calculated.
# [5] = target: T7, human Fc gamma receptors III FcγRIIIa/CD16 (Homo sapiens, UniProt P08637); experiment: Human FcγR binding ELISA, FcγRIIIa/CD16 (Example 8); conditions: ELISA binding affinity
# T7 construct: purchased R&D systems 4325-FC-050
# T7 sequence (P08637 17-254): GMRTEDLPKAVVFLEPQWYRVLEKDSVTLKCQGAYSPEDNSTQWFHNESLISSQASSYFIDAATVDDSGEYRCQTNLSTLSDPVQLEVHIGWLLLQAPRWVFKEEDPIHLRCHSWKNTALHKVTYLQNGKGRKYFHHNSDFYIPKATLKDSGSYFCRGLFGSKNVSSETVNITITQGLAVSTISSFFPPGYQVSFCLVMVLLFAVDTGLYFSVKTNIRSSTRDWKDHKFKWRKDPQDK
# Procedure: as §1, §2
substance,measurement,setting,value
"LZM-009: anti-PD-1 antibody, VH SEQ ID NO: 376, VL SEQ ID NO: 377 [reference compound]",Kd,[1],2.63 µM
same,Kd,[2],0.000315 µM
same,Kd,human PD-L1/B7-H1,> 0.1 µM
same,Kd,[3],0.006 µM
same,Kd,[4],1.35 µM
same,ka,human PD1,342000 M⁻¹ s⁻¹
same,kd,human PD1,0.0077 s⁻¹
same,Kd,[5],1.71 µM
